{"source": "patent US20180057888A1", "about": "“KUB5/HERA AS A DETERMINANT OF SENSITIVITY TO DNA DAMAGE” (priority 2015, published 2018)", "molecular_target": "RNA Polymerase II (RNAPII), phospho-Ser2 C-terminal domain (pS2-CTD) (UniProt P24928)", "assay": "cell-based or functional assay", "data": [{"substance": "myc-tagged wild-type Kub5-Hera (K-H) (from UniProt Q9NQG5 1-326)", "values": [{"measurement": "CDK1 promoter activity (luciferase reporter, 231 cells)", "result": 3, "unit": "fold"}]}]}
